From the supplement of paper PMC6379048
pEC50: −log10 of the molar value.

What was measured:
Experiment in all cases: EC50 of free RNA motif oligo competing protein binding to immobilised probe
CELF2 = target: T1, CELF2 (UniProt O95319)
T1 sequence: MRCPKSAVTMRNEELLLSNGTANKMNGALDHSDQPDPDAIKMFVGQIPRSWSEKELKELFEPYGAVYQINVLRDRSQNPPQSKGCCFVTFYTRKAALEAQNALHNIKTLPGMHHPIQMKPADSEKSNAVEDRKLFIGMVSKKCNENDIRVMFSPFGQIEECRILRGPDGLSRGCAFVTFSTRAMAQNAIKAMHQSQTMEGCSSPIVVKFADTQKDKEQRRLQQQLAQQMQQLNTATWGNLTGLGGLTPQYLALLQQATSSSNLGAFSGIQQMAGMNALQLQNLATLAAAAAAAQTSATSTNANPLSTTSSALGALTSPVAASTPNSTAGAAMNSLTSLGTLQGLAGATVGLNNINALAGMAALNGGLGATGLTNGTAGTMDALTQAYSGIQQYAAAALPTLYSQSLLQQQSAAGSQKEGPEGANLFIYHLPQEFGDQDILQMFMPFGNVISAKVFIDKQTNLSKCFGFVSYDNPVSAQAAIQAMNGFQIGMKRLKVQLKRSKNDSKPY
Experimental: (§1)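 Competition-binding assay: HEK293-FT cell lysate (2.5 mg protein) pre-incubated 1 h at 4°C with free motif-containing RNA oligos (0 to 30 µM, 12 doses), then pulled down with the same 5'-amino-C6 RNA oligos immobilised on NHS-Sepharose beads (30 min, 4°C). Bound proteins were quantified by label-free LC-MS/MS and normalised to the water control. EC50 came from a four-parameter log-logistic fit; Kd = EC50 x depletion factor. Random/reversed control probes are dropped.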

XRN2 = target: T2, XRN2 (UniProt Q9H0D6)
T2 sequence: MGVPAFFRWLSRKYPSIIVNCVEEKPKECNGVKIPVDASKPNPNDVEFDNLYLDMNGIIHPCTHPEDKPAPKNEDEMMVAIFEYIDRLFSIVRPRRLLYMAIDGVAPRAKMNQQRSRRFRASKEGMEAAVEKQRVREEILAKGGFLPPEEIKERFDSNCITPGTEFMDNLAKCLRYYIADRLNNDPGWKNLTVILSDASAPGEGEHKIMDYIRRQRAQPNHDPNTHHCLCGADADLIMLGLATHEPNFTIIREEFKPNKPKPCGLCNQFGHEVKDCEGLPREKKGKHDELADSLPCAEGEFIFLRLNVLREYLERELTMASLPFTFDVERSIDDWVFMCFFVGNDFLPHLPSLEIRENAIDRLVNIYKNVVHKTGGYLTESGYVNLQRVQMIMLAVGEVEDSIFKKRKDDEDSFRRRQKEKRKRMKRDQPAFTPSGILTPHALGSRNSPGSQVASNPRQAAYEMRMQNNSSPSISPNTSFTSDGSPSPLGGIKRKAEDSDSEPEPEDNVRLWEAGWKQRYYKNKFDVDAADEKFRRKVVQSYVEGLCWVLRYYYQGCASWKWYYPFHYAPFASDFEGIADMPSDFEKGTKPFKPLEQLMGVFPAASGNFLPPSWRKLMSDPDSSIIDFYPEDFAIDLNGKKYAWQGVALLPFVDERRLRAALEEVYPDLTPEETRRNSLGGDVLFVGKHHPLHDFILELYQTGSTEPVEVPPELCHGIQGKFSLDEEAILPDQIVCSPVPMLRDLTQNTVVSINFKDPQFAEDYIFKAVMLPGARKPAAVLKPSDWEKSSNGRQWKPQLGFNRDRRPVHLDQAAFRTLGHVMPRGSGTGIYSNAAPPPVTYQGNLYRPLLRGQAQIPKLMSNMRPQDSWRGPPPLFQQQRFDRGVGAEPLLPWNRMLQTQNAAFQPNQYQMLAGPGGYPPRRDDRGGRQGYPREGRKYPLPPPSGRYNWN
Experimental: as §1

LIN28B = target: T3, LIN28B (UniProt Q6ZN17)
T3 sequence: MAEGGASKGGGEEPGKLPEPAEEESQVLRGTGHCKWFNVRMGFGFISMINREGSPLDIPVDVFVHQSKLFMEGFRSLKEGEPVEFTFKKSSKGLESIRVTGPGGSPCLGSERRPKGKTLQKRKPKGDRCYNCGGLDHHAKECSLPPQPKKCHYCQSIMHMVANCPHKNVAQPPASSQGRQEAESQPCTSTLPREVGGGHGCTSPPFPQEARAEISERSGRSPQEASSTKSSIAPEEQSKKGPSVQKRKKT
Experimental: as §1

CELF1 = target: T4, CELF1 (UniProt Q92879)
T4 sequence: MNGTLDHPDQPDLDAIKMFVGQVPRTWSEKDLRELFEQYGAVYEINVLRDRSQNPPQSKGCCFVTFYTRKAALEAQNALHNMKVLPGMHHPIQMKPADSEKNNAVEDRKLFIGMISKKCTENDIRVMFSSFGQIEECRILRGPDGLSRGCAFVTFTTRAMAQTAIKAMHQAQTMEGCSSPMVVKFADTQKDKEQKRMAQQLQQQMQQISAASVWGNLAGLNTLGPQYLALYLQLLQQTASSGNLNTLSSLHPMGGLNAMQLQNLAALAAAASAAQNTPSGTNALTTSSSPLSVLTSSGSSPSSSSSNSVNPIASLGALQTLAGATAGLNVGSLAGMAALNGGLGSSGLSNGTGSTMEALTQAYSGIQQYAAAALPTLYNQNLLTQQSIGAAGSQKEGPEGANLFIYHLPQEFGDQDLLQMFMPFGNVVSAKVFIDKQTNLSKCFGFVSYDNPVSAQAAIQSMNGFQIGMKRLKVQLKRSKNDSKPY
Experimental: as §1

RTCA = target: T5, RTCA (UniProt O00442)
T5 sequence: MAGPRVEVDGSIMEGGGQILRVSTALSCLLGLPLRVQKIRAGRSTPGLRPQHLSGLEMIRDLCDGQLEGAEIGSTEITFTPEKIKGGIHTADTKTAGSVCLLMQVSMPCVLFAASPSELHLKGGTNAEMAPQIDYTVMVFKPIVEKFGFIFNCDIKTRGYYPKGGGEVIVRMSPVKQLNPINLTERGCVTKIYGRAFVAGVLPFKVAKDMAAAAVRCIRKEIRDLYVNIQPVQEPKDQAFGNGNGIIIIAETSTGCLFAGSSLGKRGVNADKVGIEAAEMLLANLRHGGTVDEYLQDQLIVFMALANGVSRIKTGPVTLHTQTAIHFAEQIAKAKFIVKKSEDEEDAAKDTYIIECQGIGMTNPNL
Experimental: as §1

Sequence	pEC50 (CELF2)	pEC50 (XRN2)	pEC50 (LIN28B)	pEC50 (CELF1)	pEC50 (RTCA)
CUGUCCU	5.57	6.83	5.64	5.17	5.71
AAUAAA	5.90	6.07	5.53	6.18	6.25
UAUUUAU	6.29	6.39	5.83	6.26	6.42
